What was measured:
Experiment in all cases: fluorescence polarization
[1] = target: CLIP-G (CLIP-tag-GCN4 bZIP fusion) (UniProt P03069); conditions: no added NaCl; amino-C6-T (second T of TTTT loop); 40 mM Tris-HCl, 20 mM acetic acid, 12.5 mM MgCl2, 1 mM DTT, 1 uM ZnCl2, 100 nM calf thymus DNA, 0.02% Tween 20, pH 8.0, 25 C, with or without 200 mM NaCl
[2] = target: ZF-CLIP (zif268-CLIP-tag fusion) (UniProt P08046); conditions: amino-C6-T (second T of TTTT loop), 40 mM Tris-HCl, 20 mM acetic acid, 12.5 mM MgCl2, 1 mM DTT, 1 uM ZnCl2, 100 nM calf thymus DNA, 0.02% Tween 20, pH 8.0, 25 C, with or without 200 mM NaCl
Sequence of ZF-CLIP (zif268-CLIP-tag fusion) (P08046 other isoform, or with tags, fused parts or gaps): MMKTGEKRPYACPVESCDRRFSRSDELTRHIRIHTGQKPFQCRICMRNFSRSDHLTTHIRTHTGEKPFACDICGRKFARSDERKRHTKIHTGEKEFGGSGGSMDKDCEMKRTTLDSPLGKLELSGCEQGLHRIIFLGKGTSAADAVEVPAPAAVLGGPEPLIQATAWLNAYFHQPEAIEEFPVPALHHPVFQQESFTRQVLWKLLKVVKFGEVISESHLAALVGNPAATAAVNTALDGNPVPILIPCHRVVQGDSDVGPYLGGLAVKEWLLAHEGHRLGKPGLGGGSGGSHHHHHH

[3] = system: AZ-CLIP (AZP4-CLIP-tag fusion) (designed); conditions: no added NaCl; amino-C6-T (second T of TTTT loop); 40 mM Tris-HCl, 20 mM acetic acid, 12.5 mM MgCl2, 1 mM DTT, 1 uM ZnCl2, 100 nM calf thymus DNA, 0.02% Tween 20, pH 8.0, 25 C, with or without 200 mM NaCl

Sequence	Kd [1]	Kd ([2]; no added NaCl)	Kd [3]	Kd [2]
CGTTCATGACTCATGAGTTTTCTCATGAGTCATGAAC [A488-ODN-AP]	5.1 nM	> 1000 nM	–	–
CGCGACGCCCACGCGCGTTTTCGCGCGTGGGCGTCGC [A488-ODN-ZF]	> 1000 nM	8.1 nM	> 1000 nM	56 nM
CGCGATGCCACGTAGCGTTTTCGCTACGTGGCATCGC [A488-ODN-AZ]	> 1000 nM	> 1000 nM	74 nM	–

Source: paper PMC7006624
